According to patent US20050079494A1 (MONSANTO TECHNOLOGY, published 2005):
Substitutions are numbered along the chain they refer to.

B1: mature form (plus additional methionine encoded by start codon) of glycinin A1aB1b encoded by pMON65950 (other)
chain: MFSSREQPQQNECQIQKLNALKPDNRIESEGGLIETWNPNNKPFQCAGVALSRCTLNRNALRRPSYTNGPQEIYIQQGKGIFGMIYPGCPSTFEEPQQPQQRGQSSRPQDRHQKIYNFREGDLIAVPTGVAWWMYNNEDTPVVAVSIIDTNSLENQLDQMPRRFYLAGNQEQEFLKYQQEQGGHQSQKGKHQQEEENEGGSILSGFTLEFLEHAFSVDKQIAKNLQGENEGEDKGAIVTVKGGLSVIKPPTDEQQQRPQEEEEEEEDEKPQCKGKDKHCQRPRGSQSKSRRNGIDETICTMRLRHNIGQTSSPDIYNPQAGSVTTATSLDFPALSWLRLSAEFGSLRKNAMFVPHYNLNANSIIYALNGRALIQVVNCNGERVFDGELQEGRVLIVPQNFVVAARSQSDNFEYVSFKTNDTPMIGTLAGANSLLNALPEEVIQHTFNLKSQQARQIKNNNPFKFLVPPQESQKRAVA
notes: Soybean seed storage protein subunit made in E. coli Origami (DE3), no FLAG tag; also called wild-type (mature) glycinin A1aB1b; native form
B2: amino-terminal epitope (FLAG)-tagged form of glycinin A1aB1b encoded by pMON65951 (other)
chain: MDYKDDDDKFSSREQPQQNECQIQKLNALKPDNRIESEGGLIETWNPNNKPFQCAGVALSRCTLNRNALRRPSYTNGPQEIYIQQGKGIFGMIYPGCPSTFEEPQQPQQRGQSSRPQDRHQKIYNFREGDLIAVPTGVAWWMYNNEDTPVVAVSIIDTNSLENQLDQMPRRFYLAGNQEQEFLKYQQEQGGHQSQKGKHQQEEENEGGSILSGFTLEFLEHAFSVDKQIAKNLQGENEGEDKGAIVTVKGGLSVIKPPTDEQQQRPQEEEEEEEDEKPQCKGKDKHCQRPRGSQSKSRRNGIDETICTMRLRHNIGQTSSPDIYNPQAGSVTTATSLDFPALSWLRLSAEFGSLRKNAMFVPHYNLNANSIIYALNGRALIQVVNCNGERVFDGELQEGRVLIVPQNFVVAARSQSDNFEYVSFKTNDTPMIGTLAGANSLLNALPEEVIQHTFNLKSQQARQIKNNNPFKFLVPPQESQKRAVA
notes: Mature glycinin A1aB1b with start Met and N-terminal FLAG, made in E. coli; self-assembles to trimers; also called pMON65951 protein
B3: carboxy-terminal epitope (FLAG)-tagged form of glycinin A1aB1b encoded by pMON65952 (other)
chain: MFSSREQPQQNECQIQKLNALKPDNRIESEGGLIETWNPNNKPFQCAGVALSRCTLNRNALRRPSYTNGPQEIYIQQGKGIFGMIYPGCPSTFEEPQQPQQRGQSSRPQDRHQKIYNFREGDLIAVPTGVAWWMYNNEDTPVVAVSIIDTNSLENQLDQMPRRFYLAGNQEQEFLKYQQEQGGHQSQKGKHQQEEENEGGSILSGFTLEFLEHAFSVDKQIAKNLQGENEGEDKGAIVTVKGGLSVIKPPTDEQQQRPQEEEEEEEDEKPQCKGKDKHCQRPRGSQSKSRRNGIDETICTMRLRHNIGQTSSPDIYNPQAGSVTTATSLDFPALSWLRLSAEFGSLRKNAMFVPHYNLNANSIIYALNGRALIQVVNCNGERVFDGELQEGRVLIVPQNFVVAARSQSDNFEYVSFKTNDTPMIGTLAGANSLLNALPEEVIQHTFNLKSQQARQIKNNNPFKFLVPPQESQKRAVADYKDDDDK
notes: Mature glycinin A1aB1b with C-terminal FLAG, made in E. coli; self-assembles to trimers; Template of the isoleucine mutants; also called pMON65952 protein
B4: glycinin A1aB1b mutant g3-5 (other)
chain: FSSREQPQQNECQIQKLNAIKPDNRIESEGGLIETWNPNNKPFQCAGVALSRCTLNRNALRRPSYTNGPQEIYIQQGKGIFGMIYPGCPSTFEEPQQPQQRGQSSRPQDRHQKIYNFREGDIIAVPTGVAWWMYNNEDTPVVAVSIIDTNSIENQLDQMPRRFYLAGNQEQEFLKYQQEQGGHQSQKGKHQQEEENEGGSILSGFTLEFLEHAFSVDKQIAKNLQGENEGEDKGAIVTVKGGLSVIKPPTDEQQQRPQEEEEEEEDEKPQCKGKDKHCQRPRGSQSKSRRNGIDETICTMRLRHNIGQTSSPDIYNPQAGSVTTATSLDFPAISWLRLSAEFGSIRKNAMFVPHYNLNANSIIYAINGRALIQVVNCNGERVFDGELQEGRVLIVPQNFVVAARSQSDNFEYVSFKTNDTPMIGTLAGANSLLNALPEEVIQHTFNLKSQQARQIKNNNPFKFLVPPQESQKRAVADYKDDDDK
B5: glycinin A1aB1b mutant g6-4 (other)
chain: B4 chain with I122L
B6: glycinin A1aB1b mutant g6-7 (other)
chain: B4 chain with I152L
B7: glycinin A1aB1b mutant g10-10 (other)
chain: B4 chain with I20L, L60I, I122L, I152L, L302I, I333L, L336I, I345L, I366L, L393I

Legend:
[1] = biological target: the molecule itself; test: self-assembly in E. coli; 5-25% sucrose density gradient, SDS-PAGE with Coomassie staining
Method: (§1) To characterize the expression of the wild-type and epitope-tagged (mature) glycinin A₁ₐB1b protein in E. coli, plasmids pMON65950, pMON65951, and pMON65952 are transformed into E. coli Origami™ (DE3) competent cells according to manufacturer's instructions (Novagen). A single colony is used to inoculate 2 ml LB medium. The culture is grown at 37° C. until a cell density corresponding to A₆₀₀=0.6 is achieved. An amount corresponding to a final concentration of 1 mM isopropyl-1-thio-β-D-galactopyranoside (IPTG) is added to induce protein expression and the culture is incubated at temperatures ranging from 20° to 37° C. at 225 rpm for time periods up to 20 hours. Cells are harvested by centrifugation at 5,000 rpm for 15 min at 4° C. The cell pellet is re-suspended in protein extraction buffer consisting of 20 mM Tris-HCl, pH 7.4, 0.4 M NaCl, 0.1% TritonX-100, 40 μl/ml Protease Inhibitor Cocktail, (stock: 1 tablet/2 ml, Boehringer Mannheim, Indianapolis, Ind.). The cells are then disrupted by sonication (Branson Sonifier 450, Branson Precision Processing, Danbury, Conn.) while maintaining at cold temperature with ice. Soluble proteins are separated from the insoluble fraction by centrifugation at 13,000 rpm for 5 minutes. […]

[2] = biological target: the molecule itself; test: self-assembly in E. coli; 5-25% sucrose density gradient, SDS-PAGE with Coomassie or anti-FLAG M2 western blot
Method: as §1

[3] = biological target: the molecule itself; test: self-assembly in E. coli; sucrose density gradient, anti-FLAG western blot of fractions
Method: To determine if the recombinant forms of glycinin A₁ₐB1b expressed in E. coli from […], pMON65951, and pMON65952 could self-assemble to form trimers, aliquots of the soluble protein fraction from E. coli lysates are layered onto 12 ml of a 5-25% sucrose density gradient, and centrifuged at 36,000 rpm for 17.5 hours at 20° C. (Sorvall TH-641 rotor; Sorvall Ultra Pro 80 ultracentrifuge). Following centrifugation, the gradient is divided into fractions using a Labconco Autodensi-Flow instrument (Labconco, Kansas City, Mo.), and each fraction is analyzed by SDS-polyacrylamide gel electrophoresis followed either by Coomassie staining or by western blot analysis using Anti-FLAG M2 antibody (Stratagene Corporation, La Jolla, Calif.), to determine which fractions contained glycinin A₁ₐB1b. 7S and 11S soy protein fractions, as well as ovalbumin (45 kD) and aldolase (158 kD), are run as size markers on separate gradients.
This example sets forth confirmation of the protein structure from the expression of modified glycinin A₁ₐB1b clones. The assembly properties of the following modified forms of the protein (indicated by mutant ID number), each containing a different isoleucine substitution, are determined as described in Example 3. Western blot analysis of sucrose gradient fractions is carried out as in Example 3 using anti-FLAG antibody for each of mutants G1-4 through G13-2.

| Protein | binding result [3] | further results |
| --- | --- | --- |
| B1 | – | binding result [1]: binds |
| B2 | – | binding result [2]: binds |
| B3 | – | binding result [2]: binds |
| B4 | no binding | – |
| B5 | no binding | – |
| B6 | no binding | – |
| B7 | no binding | – |
